Reference: patent publication US20260258115A1 (MAPP BIOPHARMACEUTICAL, published 2026)

How the values were obtained:
[1] = biological target: T1, RSV postfusion F (postF), subtype A (respiratory syncytial virus subtype A, UniProt P03420 26-513); assay: BLI, IgG
T1 construct: also called Postfusion subtype A; F deltaFP

[2] = biological target: T2, RSV prefusion F (preF), subtype B (respiratory syncytial virus subtype B); assay: BLI, IgG
T2 construct: also called Prefusion subtype B

[3] = biological target: T3, RSV postfusion F (postF), subtype B (respiratory syncytial virus subtype B); assay: BLI, IgG
T3 construct: also called Postfusion subtype B

[4] = biological target: T1, RSV postfusion F (postF), subtype A; assay: BLI
[5] = biological target: RSV F on RSV subtype A virus (mKate-RSV A2) (respiratory syncytial virus A2, UniProt P03420 26-574); assay: cell-based or functional assay

B1: ADI-24852 (antibody, V domains shown)
VH: QVQLVESGAEVKKPGASVKVSCKASGYTFTSYAIHWVRQAPGQRLEWMGWINAGNGNTKYSQKFQGRVTITRDTSASTAYMELSSLRSEDTAVYYCASEESGYFDYWGQGTLVTVSS
VL: not shown
notes: full-length IgG; also called Ab 413
Kd [1]: 9.57 nM | Kd [2]: 19 nM | Kd [3]: 9.17 nM

B2: ADI-24834 (antibody, V domains shown)
VH: QVQLVQSGGGLVQPGGSLRLSCAASGFTFSSYAMSWVRQAPGKGLEWVSTISGSGGSTYYADSVKGRFTISRDNSKNTLYLQMNSLRAEDTAVYYCATWKRWGSGYYYSYMDVWGKGTTVTVSS
VL: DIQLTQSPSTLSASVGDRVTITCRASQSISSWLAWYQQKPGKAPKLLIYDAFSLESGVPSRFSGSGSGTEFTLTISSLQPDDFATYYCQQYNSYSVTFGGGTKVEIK
notes: full-length IgG
Kd [1]: 0.211 nM | Kd [2]: 0.732 nM | Kd [3]: 0.26 nM

B3: ADI-19511 (antibody, V domains shown)
VH: QITLKESGPTLVKPTQTLTLTCTFSGFSLSTSGVGVGWIRQPPGKALEWLALIYWDDDKRYSPSLKSRLTITKDTSKNQVVLTMTNMDPVDTATYYCAHSVYYDFWSGYYVPNYFDYWGQGTLVTVSS
VL: DIQMTQSPSSLSASVGDRVTITCRASQGIRNDLGWYQQKPGKAPKRLIYAASSLQSGVPSRFSGSGSGTEFTLTISSLQPEDFATYYCLQHNSYPLTFGGGTKVEIK
notes: full-length IgG
binding result [4]: no binding | Kd [3]: 15.3 nM

B4: ADI-14369 (antibody, V domains shown)
VH: QVQLVQSGAEVKKPGSSVKVSCKASGGTFSSNAISWVRQAPGQGLEWMGGIIPIFATANYAQNFQDRVTITADESTGTAYMELSSLRYEDTAVYYCAKSAIHSGYHGPARSGFYQNGMDVWGQGTTVTVSS
VL: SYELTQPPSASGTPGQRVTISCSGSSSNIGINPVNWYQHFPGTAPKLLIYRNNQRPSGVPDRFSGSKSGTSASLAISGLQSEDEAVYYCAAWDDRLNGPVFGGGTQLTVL
notes: full-length IgG; also called Ab 37
Kd [2]: 3.38 nM | Kd [3]: 0.9 nM

B5: ADI-19479 (antibody, V domains shown)
VH: QVQLVQSGAEVKKPGSSVKVSCKASGGTFSSNAINWVRQAPGQGLEWMGGIIPIFGTANYAQKFQGRVTITTDESTSTAYMELSSLRSEDTAVYYCATTFYYGSGADYWGQGTLVTVSS
VL: DIQMTQSPLSLPVTLGQPASISCRSSQSLVYSDGNMYLSWFQQRPGQSPRRLIYKVSNRDSGVPDRFSGSGSGTDFTLKISRVEAEDVGVYYCMQGTHWWTFGQGTKVEIK
notes: full-length IgG
Kd [1]: 3.69 nM | Kd [3]: 2.69 nM

B6: ADI-14372 (antibody, V domains shown)
VH: QVQLLESGGGLVQPGGSLRLSCAASGFTFSNYAMGWVRQAPGQGLEWVSRISATGGSTHYADSVRGRFTISRDNSKNTLYLQMNSLKAEDTAVYYCAKDRGYSRNLTPDYWGQGTLVTVSS
VL: ETTLTQSPSSLSASVGDRVTITCRASQGITNDLGWYQKKPGKAPKLLIYVASSLQSGVPSRFSGSGSGTDFTLTISSLQPEDFATYYCLQDYNYPITFGQGTKVDIK
notes: full-length IgG; also called Ab 40
Kd [1]: 0.659 nM | Kd [3]: 4.43 nM

B7: ADI-14356 (antibody, V domains shown)
VH: QVQLQESGAGLLKPSETLSLTCAVYGGSFSGYYWSWIRQPPGKGLEWIGEINHSGSTNYNPSLKSRVTISVDTSKNQFSLKLSSVTAADTAVYYCARDQRIVVVGAATEPYYYYYGMDVWGQGTTVTVSS
VL: QPVLTQPPSVSVSPGQTARITCSGDALPKQYAYWYQQKPGQAPVLVIYKDSERPSGIPERFSGSSSGTTVTLTISGVQAEDEADYYCQSADSSGTYRVFGGGTKLTVL
notes: full-length IgG; also called Ab 24
Kd [2]: 13 nM | Kd [3]: 4.98 nM

B8: ADI-25467 (antibody, V domains shown)
VH: GVQLVESGPGLVKPSETLSLTCTVSGGSISSYYWSWIRQPPGKGLEWIGYIYYSGSTNYNPSLKSRVTISVDTSKNQFSLKLSSVTAADTAVYYCARGYYYDSSGYYPNDAFDIWGQGTMVTVSS
VL: not shown
notes: full-length IgG
Kd [1]: 25.3 nM | Kd [3]: 26.2 nM

B9: ADI-25587 (antibody, V domains shown)
VH: QVQLVESGGGVVQPGRSLRLSCAASGFTFSSYGMHWVRQAPGKGLEWVAVIWYDGSNKYYADSVKGRFTISRDNSKNTLYLQMNSLRAEDTAVYYCARDSTYSEAFDIWGQGTMVTVSS
VL: QSVLIQPASVSGSPGQSITISCTGTSSDVGGYNYVSWYQQHPGKAPKLMIYDVSNRPSGVSNRFSGSKSGNTASLTISGLQAEDEADYYCSSYTSSSTWVFGGGTKVTVL
notes: full-length IgG
Kd [1]: 9.23 nM | Kd [3]: 7.93 nM

B10: ADI-14379 (antibody, V domains shown)
VH: EVQLLESGGGVVQPGRSLRLSCAASGFTFSSYAMHWVRQAPGKGLEWVAVIGNDGTNKYHADSVKGRFTISRDNSKNTLYLQMNSLRAEDTAVYYCARRRVGIMYSGSYWGGMDVWGQGTTVTVSS
VL: SYELTQPPSVSVSPGQTASITCSGDKLGGKYVSWYQQKPGQSPVLVMYQDTRRPSGIPERLSGSNSGSTATLTISATQAMDEADYYCQAWDITTVHVVFGGGTKLTVL
notes: full-length IgG; also called Ab 47
Kd [1]: 3.29 nM | Kd [3]: 2.35 nM

B11: ADI-22772 (antibody, V domains shown)
VH: EVQLVESGGGVVQPGRSLRLSCAASGFTFSSYAMHWVRQAPGKGLEWVAVISYDGSNKYYADSVKGRFTISRDNSKNTLYLQMNSLRAEDTAVYYCARAVEQQLFIWYYGMDVWGQGTTVTVSS
VL: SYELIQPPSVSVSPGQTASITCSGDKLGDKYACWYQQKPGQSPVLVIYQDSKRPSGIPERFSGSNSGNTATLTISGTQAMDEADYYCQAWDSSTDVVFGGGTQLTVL
notes: full-length IgG
binding result [4]: no binding | Kd [3]: 50.2 nM

B12: ADI-24846 (antibody, V domains shown)
VH: EVQLLESGGGLVKPGGSLRLSCAASGFTFSSYSMNWVRQAPGKGLEWVSSISSSSSYIYYADSVKGRFTISRDNAKNSLYLQMNSLRAEDTAVYYCARDDGILWLDYWGQGTLVTVSS
VL: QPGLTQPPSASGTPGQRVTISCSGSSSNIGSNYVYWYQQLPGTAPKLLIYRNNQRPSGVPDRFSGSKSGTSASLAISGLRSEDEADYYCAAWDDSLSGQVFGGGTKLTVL
notes: full-length IgG
binding result [4]: no binding | Kd [3]: 29.1 nM

B13: ADI-24825 (antibody, V domains shown)
VH: QVQLVQSGAEVKKPGASVKVSCKASGYTFTSYDINWVRQATGQGLEWMGWMNPNSGNTGYAQKFQGRVTMTRNTSISTAYMELSSLRSEDTAVYYCSSVGGYYYYGMDVWGQGTTVTVSS
VL: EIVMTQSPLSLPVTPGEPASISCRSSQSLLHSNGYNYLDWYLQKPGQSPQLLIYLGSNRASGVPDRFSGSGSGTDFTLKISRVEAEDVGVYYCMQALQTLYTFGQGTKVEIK
notes: full-length IgG
Kd [1]: 30.1 nM | Kd [3]: 26 nM

B14: ADI-24803 (antibody, V domains shown)
VH: EVQLLESGGGLVLPGGSLRLSCAASGFTFSSYAMSWVRQAPGKGLEWVSAISGSGIYTYYADSVKGRFTISRDNSKNTLYLQMSSLRAEDTAVYYCAKGSLGMAYSAFDIWGLGTTVTVSS
VL: DIQLTQSPGTLSLSSGERATLSCRASQSVSSNYLAWYQQKPGQPPRLLIYGASSRATGIPDRFSGSGSGTDFTLTISRLEPEDFAVYYCQQYGSSPLTFGGGTKVDIK
notes: full-length IgG
Kd [1]: 1.2 nM | Kd [3]: 0.442 nM

B15: ADI-19476 (antibody, V domains shown)
VH: QVQLVESGPTLVKPTQTLTLTCTFSGFSLSTSRVGVGWIRQPPGKALEWLALIYWDDDKRYSPSLKSRLTITKDTSKNQVVLTMTNMDPVDTARYYCAHRSTYDILGGYYYFDYWGQGTLVTVSS
VL: QPVLTQPRSVSGSPGQSVTISCTGTSSDVGGYNYVSWFQQHPGKAPKLMIYDVSKRPSGVPNRFSGSKSGNTASLTISGLQAEDEADYFCCSYAGTYEVFGGGTKLTVL
notes: full-length IgG
Kd [1]: 0.801 nM | Kd [3]: 0.838 nM

B16: ADI-24793 (antibody, V domains shown)
VH: QVQLVQSGAEVKKPGESLKISCKGSGYSFTSYWIGWVRQMPGKGLEWMGIIYPGDSDTRYSPSFQGQVTISADKSISTAYLQWSSLKASDTAMFYCVMGSYSYYFDYWGQGTLVTVSS
VL: NFMLTQPHSVSESPGKTVTISCTRSSGSIASNYVQWYQQRPGSAPTTVIYEDNLRPSGVPDRFSGSIDSSSNSASLTISGLKTEDEADYYCQSYDSSNQVFGGGTKLTVL
notes: full-length IgG
binding result [4]: no binding | Kd [3]: 26.8 nM

B17: ADI-25576 (antibody, V domains shown)
VH: EVQLVESGGGLVQPGGSLRLSCAASGFTFSSYWMHWVRQAPGKGLVWVSRINSDGSSTSYADSVKGRFTISRDNAKNTLYLQMNSLRAEDTAVYYCARGLYNWNHDYWGQGTLVTVSS
VL: NFMLTQPHSVSESPGKTVTISCTRSSGSIASNYVQWYQQRPGSSPTTVIYEDNQRPSGVPDRFSGSIDSSSNSASLTISGLKTEDEADYYCQSYDSSNVVFGGGTKVTVL
notes: full-length IgG; also called Ab 460
Kd [3]: 23.9 nM

B18: ADI-19486 (antibody, V domains shown)
VH: QVQLQESGPGLVKPSETLSLTCSVSGGSLTSYYWSWIRQPPGKGLEWIGYIYYSGSTNYNPSLKSRLTISVDTSKNQFSLKLSSVTAADTAVYYCARVGGRGVINVFDYWGQGTLVTVSS
VL: QPVLTQPASVSGSPGQSITISCTGTSSDVGGYNYVSWYQQHPGKAPKLMIYEVSNRPSGVSNRFSGSKSGNTASLTISGLQAEDEADYYCDSYRSNSASVVFGGGTKLTVL
notes: full-length IgG
Kd [1]: 0.525 nM | Kd [3]: 7.55 nM

B19: ADI-19503 (antibody, V domains shown)
VH: QVQLVQSGAEVKKPGASVKVSCKASGYTFTSYYMHWVRQAPGQGLEWMGIINPSGGSTSYAQKFQGRVTMTRDTSTSTVYMELSSLRSEDTAVYYCARDSLVNCSGGSCPGGPDYWGQGTLVTVSS
VL: SYVLTQPPSVSVSPGQTARITCSGDALPKKYAYWYQQKSGQAPVLVIYEDSKRPSGIPERFSGSSSGTMATLTISGAQVEDEADYYCYSTDSSGNHRVFGGGTKLTVL
notes: full-length IgG
Kd [3]: 11.6 nM

B20: ADI-25573 (antibody, V domains shown)
VH: EVQLVESGAEVKKPGASVKVSCKASGYTFTSYYMHWVRQAPGQGLEWMGIINPSGGSTSYAQKFQGRVTMTRDTSTSTVYMELSSLRSEDTAVYYCARGPYDSSGYCDYWGQGTLVTVSS
VL: SYELMQPPSVSVAPGKTARITCGGNNIGSKSVHWYQQKPGQAPVLVVYDDSDRPSGTPERFSGSNSGNTATLTISRVEAGDEADYYCQVWDSSSDQVFGGGTKVTVL
notes: full-length IgG
binding result [4]: no binding | Kd [3]: 48.6 nM

B21: ADI-25575 (antibody, V domains shown)
VH: EVQLVESGAEVKKPGASVKVSCKASGYTFTSYYMHWVRQAPGQGLEWMGIINPSGGSTSYAQKFQGRVTMTRDTSTSTVYMELSSLRSEDTAVYYCARGPYDSSGYCDYWGQGTLVTVSS
VL: SYELTQPPSVSVAPGKTARITCGGNNIGSKSVHWYQQKPGQAPVLVVYDDSDRPSGIPERFSGSNSGNTATLTISRVEAGDEADYYCQVWDSSSDQVFGGGTKLTVL
notes: full-length IgG
Kd [3]: 39.6 nM | Neut IC50 subtype A [5]: 5.64 µg/mL

B22: ADI-19483 (antibody, V domains shown)
VH: QVQLVQSGAEVKKPGESLKISCKGSGYSFTTYWIGWVRQMPGKGLEWMGIIFPGDSDTRYSPSFQGQVTISADKSISTAYLQWSSLKASDTAMYFCARSAFPFGFDIWGQGTMVTVSS
VL: SYVLTQPHSVSESPGKTVTISCTRSSGSIASNYVQWYQQRPGSSPTTVIYEDHQRPSGVPDRFSGSIDSSSNSASLTISGLQTEDEADYYCQSYGSGNPWVFGGGTKVTVL
notes: full-length IgG
Kd [1]: 0.321 nM | Kd [2]: 1.77 nM | Kd [3]: 0.153 nM
